Experiment [1] deals with T1, Recombinant Human ErbB2/HER2 Fc Chimera; R&D Systems; Cat. No. 1129-ER (human, UniProt P04626 23-652).
T1 construct: Bought reagent; also called human Her2; HER2-HIS-tag; not shown: not described
Kind of experiment: HER2 biochemical ELISA, coated HER2 Fc chimera (Example 3). (In general: In an ELISA, binding on a coated surface is turned into a signal by an enzyme label.)

For experiment [2], the target named is FcγRIIIa receptor, V158 (human, UniProt P08637 17-254). The experiment is described as follows: cell-based or functional assay.
Experiment [3] addresses T2, HER2 on SK-BR-3 cells (human, UniProt P04626 23-1255).
T2 construct: whole, on cells
The experiment is described as follows: cell binding to SK-BR-3, high content imaging (Example 4).

Chain of FcγRIIIa receptor, V158 (P08637 17-254 F176V): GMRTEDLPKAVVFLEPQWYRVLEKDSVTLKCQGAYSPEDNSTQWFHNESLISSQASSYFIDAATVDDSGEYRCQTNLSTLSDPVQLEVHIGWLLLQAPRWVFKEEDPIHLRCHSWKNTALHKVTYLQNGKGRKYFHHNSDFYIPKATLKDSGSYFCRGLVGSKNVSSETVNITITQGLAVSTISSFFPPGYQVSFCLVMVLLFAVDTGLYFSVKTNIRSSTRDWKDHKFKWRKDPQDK

B1: MABD B100 (antibody)
heavy: not shown
light: DIVMTQTPASVSEPVGGTVTIKCQASQGISTALAWYQQKPGQRPKLLIYSASTLASGVSSRFKGSGSGTQFTLTISDLECADAATYYCQCTAAGSVSVGAFGGGTEVVVNRTVAAPSVFIFPPSDEQLKSGTASVVCLLNNFYPREAKVQWKVDNALQSGNSQESVTEQDSKDSTYSLSSTLTLSKADYEKHKVYACEVTHQGLSSPVTKSFNRGEC
The EC50 is the concentration at which the effect is half-maximal. Regarding B1, the EC50 in experiment [1] was 0.0052 µg/mL. For the same molecule, in experiment [2], the “EC50 of FcR signaling” value was determined as 0.052 µg/mL and the “stimulation of FcR signaling” value amounted to 132 fold. In experiment [3], the EC50 was found to be 0.078 µg/mL.

These data come from US20190241674A1 (MAB DISCOVERY, published 2019).
